Assay: yeast display, Sf9 membrane polyspecificity reagent, FACS + sequencing; frameworks hold sequencing errors
How it was run: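 Polyreactivity labels are assigned by the sorting gate from which each nanobody was recovered. The gates were low and high (top ~1%), set on anti-HA fluorescence for expression and streptavidin fluorescence for reagent binding. Before sorting, galactose-induced (36–48 hours) yeast display cells were stained for 1 hour at 4 °C with 10% biotinylated, detergent-solubilized Sf9 membrane reagent.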

| Sequence | polyreactivity (PSR sort gate) |
| --- | --- |
| EEELVESAVRLVQAGVSLRLSCAASAIIYAYNAMGWYRQAPGKESELVAAISSGDDTNYADSVKGRFTISRDNAKNTVYLQLNSLKPEDTAVYYCAAEVWTAFTHGSYWTVVDYDYWGQGTQVTVST | low polyreactivity |
| EEELVESGGGLVQAGGSSLRLSCAASGRTFSTNVMGWYRQAPGKERELVAAINRSGGSTYYADSVKGRFTISRDNAKNTVYLQMNSLKPEDTAVYYCAKRDGVGNHEFDYWGQGTQVTVSS | low polyreactivity |
| EVHLVESGGGLVQPGGSLRLSCAASGDIYSRYRMGWYRQAPGKGREFVAAISGGSSTNYADSVKGRFTISRDNSKNTVYLQMNSLRAVDTAVSYCAAYKIDSDPRVYWGQGTQVTVSS | low polyreactivity |
| EVQLEESGGGLVQAGGSLRLSCAASGSTFYQYALGWSRQAPGKERELVAAITTIGGRTYYADSVKGRFTISRDNAKNTVYLQMNSLNPEDTAVYYCAAGYRAWEPYGHYGYWGQGTQVTVSS | high polyreactivity |
| EVQLEESGGGLVQAGGSLRLSCPASGLIFGLYAMGWYRQAPGKERELVAAISYRTDSTYADSVKGRFTISRDNAKNTFYLQKNSLIPEDTAVYYCAADLRVSVGYYYWGQGTQVTVSS | low polyreactivity |
| EVQLVESGAGLVQAVGSLRLSCYASGFIFGYNAMGWYRQAHGKERELVAAISSGGGNTYYADSVKGRFTISRDNAKNTVYLQMNSLKPEDTAVYYCAAPDPRRPRRGDSWGQGTQVTVSS | low polyreactivity |
| EVQLVESGGGLVQAGGSLRLICAASGRTFQNYAMGWYRQAPGKERELVADITSGGSTYADSVKGRFTISRDNAKNTVYLQMNSLKPEDTAVYYCNADRTYPEPAEYYYWGQGTQVTVSS | low polyreactivity |
| EVQLVESGGGLVQAGGSLRLSCAASGRTFSYYAMGCYRQAPGKERELVAAISGGGSTNYADSVKGRFTISRDNAKYTVYLQMNSLKPEDTAVYYCAVGGFLRYRISLGKSYYYWGQGTQVTVSS | high polyreactivity |
| EVQLVESGGGLVQAGGSLRLSCAASGSTFRYNAMGWSRQAPGKEWEFVATISWTTGSTYYADSVKGRFTISRDNAKNTVYLQMNCLNAEDTAVYYCAAVASLFSDFRDYDYWGQGTQVTVSS | low polyreactivity |
| EVQLVESGGGLVQAGGSLRLTCAASGSIFPVYAMGWYRQAPGKERELVASISNGGTTYYADSVKGRFTISRDNAKNTVYLQMKSLKAEDTAVYYCAATGWAYGYGYGYWGQGSQVTVSS | low polyreactivity |
| EVQLVESGGGLVQPGGSLRLSCAASGYIYSRYRMGWYRQAPGKGREFVAAISGGSSTNYADSVKGRFTISRDNSKYTVYLQMNSLRAEDTAVYYCAAFKIDSDPRVYWGQGTQVTVSS | low polyreactivity |
| EVQLVESGGGLVQPGGSLRLSCAASGYIYSRYRMGWYRQAPGKGREFVAAISGGSSTNYADSVKGRFTSSRDNSKNTVYLQMNSLRAEDTAVYYCAAYKIDSDQRVYWGQGTQVTVSS | low polyreactivity |
| EVQQVESGGGLVQPGGSLRLSCAASGYIYSRYRMGWCRQAPGKGREFVAAISGGSSTNYADSVKGRFTISRDNSKITVYLQMKSLRAEDTAVYYCAAYMIDSDPRVFWGQGTQVNVSS | low polyreactivity |
| EVQVVESGGGLVQAGGSLRLSCAASGRIFLRNAMGWYRQAPGKEWEFVATITSGGSTFYADSVKGRFTISRDNAKNTFYLQMNRLKPEDTAVYYCAAPSYYTPFHTPNYCWGQVTQVTVSS | low polyreactivity |
| HAQLQESGGGLVQAGGSLRRSCAASGSMFRFSGMGWYRRAPGKERELVASIGFGSITYYADRVKGRFTISRDNANHTVYLQMNTLKPEDTAVYYCAVQVQDESWLDYWGQGTQVTVSC | low polyreactivity |
| HAQLQESGGGLVQAGGSLRRSFAASGSIFRFSGMGWYRRAPGKERELVASIGFGSITYYADRVKGRFTISRDNANNTVYLQMNSLKPEDTAVYYCAVQVQDESWLDYWGQGTQVTVSC | low polyreactivity |
| HEQRVESCGGLVQARCSLRLSCAASGGTFRYNTMGWYRQAPGKERDLVADISSDGRTYYADSVKGRFTISRDNAKTSVYLQMNSLKPEDTAVDYCAVDRFTPDVYEYGYWGQGTQVTVSS | high polyreactivity |
